Test results from the supplement of paper PMC9170038.

Tested on: MS2 coat protein
Test: apparent KD of MS2 coat protein; designed switch direction (-1 OFF switch, 1 ON switch): -1; higher = weaker reporter binding
In short: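 Three titration conditions were used: no input, 200 uM small-molecule ligand, and an oligonucleotide input. In each, SNAP-549-labelled MS2 coat protein was raised from 0.7 or 1.5 nM, doubling, to 3 µM over designed RNA switches transcribed on Illumina chips by stalled E. coli RNA polymerase. Curve fits of normalised cluster fluorescence gave values whose per-design median over clusters is the apparent KD.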

[1] = input ligand: microRNA oligo, concentration not stated
[2] = Eterna round: R95, input ligand: microRNA oligo, concentration not stated
[3] = Eterna round: R95, input ligand: FMN 200 uM
[4] = Eterna round: R95, input ligand: none

Sequence	apparent KD of MS2 coat protein (input ligand: FMN 200 uM)	apparent KD of MS2 coat protein (input ligand: none)	apparent KD of MS2 coat protein [1]	apparent KD of MS2 coat protein [2]	apparent KD of MS2 coat protein [3]	apparent KD of MS2 coat protein [4]
ACAUUACAUGAGGAUCACCCAUGUGAGGAUAUGGAGCGAGAGUGUCCUGUCGCGUACACCAGAAGGCGCGGGUG [1st #50] (Eterna round: R97, puzzle: Exclusion 1)	235 nM	80.1 nM	–	–	–	–
CAAUAUUAUCGAGGAUAUCCUAUUGUAUUUCUGGGAGAAGGCGGACUCAACAUGAGGAUCACCCAUGUAAGACGGGUACUAGAU [Ex NG1 #20] (Eterna round: R96, puzzle: Exclusion NG 1)	119 nM	98.5 nM	81 nM	–	–	–
CAGGAUAGAGGAUAUACAUAGAUACAGGUUCAUGUAAUCCUACAUGAGGAUCACCCAUGUAGAAGGCUAUCCUG [Fiskers Ex 2 - 19] (puzzle: Exclusion 2)	–	–	–	14.8 nM	–	–
AGUCCUAGUCAAGGAUAUACACCGAAGAAAUACGUAGAAGGUGACAUGAGGAUCACCCAUGUAGGGCCUCUGGAAACAGAGGAA [Indiinbi] (Eterna round: R96, puzzle: Exclusion NG 1)	208 nM	143 nM	107 nM	–	–	–
CCGGAAAUAGAGGAUAUCGUACUGGAUACAGUACGAGAAGGCUAUACAUGAGGAUCACCCAUGUGUCCUACCGG [Fiskers Ex 6 - 61] (puzzle: Exclusion 6)	–	–	–	16.1 nM	–	–
CCCUUGUGAGGAUAUUCUUAAAAUGCUAACCACAAUUUUAUGAAGAAGGCACAUGAGGAUCACCCAUGUUUCUC [mod1] (Eterna round: R97, puzzle: Exclusion 4)	80.5 nM	96.4 nM	–	–	–	–
UUUUUACAUGAGGAUCACCCAUGUCAGGAUAUCCUUAUAUUUUAUUAUUUUAUUUUUUGGAGAAGGGACUAUUA [My solution] (Eterna round: R96, puzzle: Exclusion 1)	362 nM	322 nM	282 nM	–	–	–
CCGGAAAUGAAGGAUAUAGGAGUCGAUAGACACCUAGAAGGUCAUACAUGAGGAUCACCCAUGUGUCCUACCGG [Fiskers Ex 6 - 78] (puzzle: Exclusion 6)	–	–	–	14.9 nM	–	–
GUCUUCAUGACAUGAGGAUCACCCAUGUGUUAUAUUUUUACUAAGGAUAUAUUUUUAAUGUUGAGAUAGAAGGUAGUUUCGGUC [JR_ExcNG3_Sub092] (Eterna round: R96, puzzle: Exclusion NG 3)	–	–	79.1 nM	–	–	–
UAAAGAGCAGGAUAUCUAAUGUAUCACAUGAGGAUCACCCAUGUCCAGCGAAAGCUGGAGGGAGAAGGGCUCUAAU [Mat - Exclusion 5 - Eli mod - D103] (puzzle: Exclusion 5)	–	–	–	182 nM	178 nM	130 nM
CUAGAUCUUCGGAUCUAGUACAUGAGGAUCACCCAUGUGACGAGUAUAUCCUCAAACAAGCUUUUUGCUCGUCUUAU [Sensor v3 - Turn-off variant 1 - 21] (puzzle: Sensor v3, turn-off variant 1)	–	–	–	237 nM	243 nM	172 nM
GGAUAGUGAGGAUAUGCAUACGGUGUAAGUCCCAGAUCGAAACAUGAGGAUCACCCAUGUAGAAGGCGCAAAAC [Begerila] (puzzle: Exclusion 2)	–	–	–	20.2 nM	–	–
AAAUACAAGUAAAGAUUCUACAUGAGGAUCACCCAUGUGCUCGUCUUAUAAAGUACUAUCACGAAAGUGAUAGUACA [Sensor 3, v1 - 26] (puzzle: Sensor v3, turn-off variant 1)	–	–	–	188 nM	17 nM	15 nM
GGAGAGGCAGGAUAUACAUGAGGAUCACCCAUGUGAGCGAGGAGAACGAGCAAGAGAGGUAGAAGGGCCGGGAG [AK-MS2ROC-r4-exclusion3-27] (Eterna round: R97, puzzle: Exclusion 3)	46.5 nM	44.9 nM	–	–	–	–
AAAAAAUACAUGAGGAUCACCCAUGUAGAGUGGGAAGAGAGAUAGGAUAUGAUGUGAGAAUCAUAUCAGAAGGAUCGAGACUCA [AK ExNG3-2.2] (Eterna round: R96, puzzle: Exclusion NG 3)	143 nM	139 nM	110 nM	–	–	–
CUCAUGUGUGAGGAUAUUAGAGCGAGCGUGUGAUAAGAAGGCACAACAUGAGGAUCACCCAUGUAGAGAGAGUG [Alacar 1st] (Eterna round: R97, puzzle: Exclusion 6)	28.9 nM	69.6 nM	–	–	–	–
UUUAAUUUUUUUUUUUUACAAGCUUUUUGCUCGUCUUAUACAUGAGGAUCACCCAUGUAAGUGGAGGAUAAAUUAUC [JMF 33] (puzzle: Sensor v3, turn-off variant 2)	–	–	–	23.8 nM	24.7 nM	24.1 nM

Sequence	apparent KD of MS2 coat protein (input ligand: FMN 200 uM)	apparent KD of MS2 coat protein (input ligand: none)	apparent KD of MS2 coat protein [1]	apparent KD of MS2 coat protein [2]	apparent KD of MS2 coat protein [3]	apparent KD of MS2 coat protein [4]
GACCUGAGGCAAAGCUUUAGGCUUACAUGAGGAUCACCCAUGUAGGAUAUGGUAGGCAAAGCUUACCAGAAGGACAUGGAAAUU [Mat - Exclusion NG 3 - Mod of JL - D25] (Eterna round: R96, puzzle: Exclusion NG 3)	646 nM	125 nM	98.7 nM	–	–	–
UCGCUGCGAGGAUAUACGUGCGCGCGCUCGCGUGCGCGCGUACAUGAGGAUCACCCAUGUAGAAGGCGCGCUGC [Apr-15 SS2-4] (puzzle: Exclusion 2)	–	–	–	13.4 nM	–	–
AGCUAGUCAGGAUAUUCUAAUAAUUACAUGAGGAUCACCCAUGUGAAUAGACAAGGGUGUGAAGAAGGGACUAGCG [Omei Ex5 A5] (Eterna round: R97, puzzle: Exclusion 5)	58.3 nM	366 nM	–	–	–	–
AUAUUACAUGAGGAUCACCCAUGUGAGGAUAUGGAGCGAGACUGUCCUGUCGCGUACACCAGAAGGCGCGGGUG [1st #52] (Eterna round: R97, puzzle: Exclusion 1)	183 nM	118 nM	–	–	–	–
GUGAAACAUGAGGAUCACCCAUGUGAGGAUAUGAUUAAGUAAUGAUGAAAGUAUAUAUUCAGAAGGCACAAUGG [Mat - Mod of JL D73] (puzzle: Exclusion 1)	–	–	–	83.3 nM	132 nM	152 nM
UUGUAACAUGAGGAUCACCCAUGUGAGGAUAUGGUUAAGUAAUGUAAUGUAAAGUAAUCCAGAAGGCACAUGUU [1st #24] (Eterna round: R97, puzzle: Exclusion 1)	488 nM	328 nM	–	–	–	–
GAAGUUAGAGGAUAUACAUGAGGAUCACCCAUGUGUGAAGUAAACUUUGUAUGUUUAUGUAGAAGGCUAACUUC [-21.7, -19.9 kcal, 32% A] (Eterna round: R97, puzzle: Exclusion 3)	94 nM	19.1 nM	–	–	–	–
AUGGUCCGAGGAUAUAUUAUGUGAUACAUGAGGAUCACCCAUGUUAUAUGAUGGAUGUUAGUAGAAGGCGGACUAC [salish99_ex5_r3_002] (puzzle: Exclusion 5)	–	–	–	82.2 nM	89.3 nM	103 nM
GGAUAAAAGACAGGAUAUGAGGAGAGAGAGAGAUCAGAAGGGUCACAUGAGGAUCACCCAUGUGAGUUCUCGAUAAGAAACACG [Prohibition 54 - Jieux - Exclusion NG 1] (Eterna round: R96, puzzle: Exclusion NG 1)	15.5 nM	18.4 nM	12.7 nM	–	–	–
AAAUUAAGUGUGAGGAUAUGCUGGUCCUUAGAUCAGCAGAAGGCACAUGAGGAUCACCCAUGUAAUAUAUUUAA [Mat - Exclusion 4 - JL Mod - D50] (puzzle: Brourd's mod of Exclusion 4)	–	–	–	35.4 nM	–	–
UAAUACAUCUAUGGGAGUAACAUGAGGAUCACCCAUGUAUGUCUUGUUUUUUGUUCGUCAUAGACUUUCUGAUCAGU [JR_SV3TOV1_Sub029] (puzzle: Sensor v3, turn-off variant 1)	–	–	–	175 nM	47.9 nM	52.2 nM
AAAAUGUCAGGAUAUGUGAAAGAAAAGAAAAGAAAAGAAAAACAGAAGGGACAUGAGGAUCACCCAUGUAAGAA [Exclusion 4 #3] (puzzle: Exclusion 4)	–	–	–	25.2 nM	21.6 nM	27.1 nM
GAAAAGGUAGGAUAUACGAAAAAAAAGGGUAGAAAAGAAACACAUGAGGAUCACCCAUGUAGAAGGACCAAAAG [salish99_ex2_r3_016] (puzzle: Exclusion 2)	–	–	–	27.8 nM	78 nM	21.5 nM
GGUCUUCAAGUCAGGAUAUCGUCUAGUCGGUCUGGCGAGAAGGGACAUGAGGAUCACCCAUGUCGUCUCAUCAG [Ex4 #14] (Eterna round: R97, puzzle: Brourd's mod of Exclusion 4)	30.6 nM	19.9 nM	–	–	–	–
UAAAUGCUGCGAGGAUAUACAUGAGGAUCACCCAUGUGGAUGUCUGAGGCUUUGCCUCAGACGAUGUAGAAGGCGCAGUAAAAU [Mat - Exclusion NG 2 - Mod of JL - D52] (Eterna round: R96, puzzle: Exclusion NG 2)	134 nM	22.5 nM	15.7 nM	–	–	–
CGCCAUCGAGUGAGGAUAUCAGGUAAAGGUGUACAUGAGAAGGCACUUGAGGAUCACCCAAGUAUUAAAGAAAA [Mareat] (Eterna round: R97, puzzle: Brourd's mod of Exclusion 4)	356 nM	48.3 nM	–	–	–	–
GGCGAAGUAGGAUAUACAUGAGGAUCACCCAUGUAACCUGAUGGCGUAGGUCUUCUAUGUAGAAGGGCUGCGCC [jl-ex3-4.38 ViennaUCT mod] (Eterna round: R97, puzzle: Exclusion 3)	16 nM	15.6 nM	–	–	–	–
